The text below walks through data of the DeepSol protein solubility set.

This series in a line: soluble on expression in E. coli; label from the status in PepcDB or PDB records.
As for “MVMEYLVLEKRLKRLREVLEKRQKDLIVFADNVKNEHNFSAIVRTCDAVGVLYLYYYHAEGKKAKINEGITQGSHKWVFIEKVDNPVQKLLEFKNRGFQIVATWLSKESVNFREVDYTKPTVLVVGNELQGVSPEIVEIADKKIVIPMYGMAQSLNVSVATGIILYEAQRQREEKGMYSRPSLSEEEIQKILKKWAYEDVIKERKRTLSTS”, the “soluble on expression in E. coli” value was “soluble”.
The value for “MVMIMRICIQPVGDVNDEILKFLKKKFGEVFGMCEILPKIDIPIYAYNFSRGQFNSTLILKSLPTVEDIVLGVTEVDIYADNLNFVFGEAELFGKRALISLARLRPEFYGLPPNKDVLKIRALKEAIHEIGHVLGLIHCENKRCVMSFSNSIIDVDLKDWRYCKKCLKKLQDRGIYISILEHHHHHH” was “not soluble”.
On to “MVMSSEGGEDRWVFGYGSLMWRPGFPFIDRRTAVLHGRRRAFCIYSVHHRGTYERPGLVLGLAPGGSVRGMAYRVAAAEWEGVYAYLREREQPTETYFETWREVKVDGGDKAPALVFLSDMKHSQWAGDLTLEQQAALIAGAVGLSGPNIDYLRDLVMHLHEDGVRDHAMEKLLKMVEAREAALEHHHHHH”, for which the “soluble on expression in E. coli” value is on record as “not soluble”.
Consider “MVNEYKKILLLKGFELMDDYHFTSIKSLLAYDLGLTTKMQEEYNRIKITDLMEKKFQGVACLDKLIELAKDMPSLKNLVNNLRKEKSKVAKKIKTQEKAPVKKINQEEVGLAAPAPTARNKLTSEARGRIPVAQKRKTPNKEKTEAKRNKVSQEQSKPPGPSGASTSAAVDHPPLPQTSSSTPSNTSFTPNQETQAQRQVDARRNVPQNDPVTVVVLKATAPFKYESPENGKSTMFHATVASKTQYFHVKVFDINLKEKFVRKKVITISDYSECKGVMEIKEASSVSDFNQNFEVPNRIIEIANKTPKISQLYKQASGTMVYGLFMLQKKSVHKKNTIYEIQDNTGSMDVVGSGKWHNIKCEKGDKLRLFCLQLRTVDRKLKLVCGSHSFIKVIKAKKNKEGPMNVN”, for which the “soluble on expression in E. coli” value is on record as “soluble”.
As to “MVNNEYQQLNTLVESDDEADLVIANLVKQLNELKQILVSLDNQEASATAVTDKKEEEYNQNQSSFHNFSKETLQKQAKRGFLLLERCSLVGLQQLELEYVNLLGRSFDSYQQKTELLNNLKELVDEHFSDTEKIINTLEKIFDVIGGSEYTPVLNSFFNKLLSDPDPIQREIGLRQFIITLRQRFKKLSQKIDSSLKQIETEAKIATEQVQNSEVMFGPPDIANDHELNLNWPDSETDAILSSMENELEAALLAKHQEEPPLIVTPPSLIKPTVSQPEVEVVTPTNNTNFQPQVDLKPTDLKKQQKKKPLNFITRPVFKSNLPPKLSKDDIVHYAHQLLEKNTHNE”, the “soluble on expression in E. coli” value was “soluble”.
As to “MVPESHPRYKSLLNRDRIVEAFESGVLAKGGMIAHGRGETFDYLIGESTTDAALNSIKVSAALLVLAENPVISVNGNSVALAKDEFVELAKELNGKIEVNLFYRTTEREEKIKDVFESDINGGIVLLGIDNADKQIPGIDHLRGKVSESGIYTSDVVLVPLEDGDRAEALVKMGKTVIAIDLNPLSRTARKSTISIIDELTRCIPLITEYVREYKKMDRAELLKIVENYDNEENLRNILNLISKRLTSVDLEHHHHHH”, the “soluble on expression in E. coli” value is given as “soluble”.
With “MVQEAPAALPTEPGPSPVPAFLGKLWALVGDPGTDHLIRWSPSGTSFLVSDQSRFAKEVLPQYFKHSNMASFVRQLNMYGFRKVVSIEQGGLLRPERDHVEFQHPSFVRGREQLLERVRRKVPALRGDDGRWRPEDLGRLLGEVQALRGVQESTEARLRELRQQNEILWREVVTLRQSHGQQHRVIGKLIQCLFGPLQAGPSNAGGKRKLSLMLDEGSSCPTPAKFNTCPLPGALLQDPYFIQSPLPETNLGLSPHRARGPIISDIPEDSPSPEGTRLSPSSDGRREKGLALLKEEPASPGGDGEAGLALAPNECDFCVTAPPPLPVAVVQAILEGKGSFSPEGPRNAQQPEPGDPREIPDRGPLGLESGDRSPESLLPPMLLQPPQESVEPAGPLDVLGPSLQGREWTLMDLDMELSLMQPLVPERGEPELAVKGLNSPSPGKDPTLGAPLLLDVQAALGGPALGLPGALTIYSTPESRTASYLGPEASPSP”, the “soluble on expression in E. coli” value is listed as “soluble”.
With “MVQISDLPRDLTEEVLSRIPVTSMRAVRFTCKKWNTLSKDRSFTKKHLRGARAAAKKKQTKEFQVIMMIQFRVYLYSVNLLNPSIERIGKLISLDVEDHVDISKIFHCGGLLLCITKDISRLVVWNPYSGQTRWIKPRNSYHRLDRYALGYEEKNKSCRCYKILRFMDDYEDDRALRLIREFEIYDLNSDSWKVVNVTPDWDVEFYHRGLSLKGNTYWFAQEKLPPLPRGRVITISDMADFLLCFDFTRERFGPRLPLPFHSFVEDTVTLSSVRDKKLAVLFQPCSASTVKIWISRKIEPNAVSWRKVFLAVDMKSLTGFQFDINAASFFVDEKKKVAMVLDKDRFSYKFTRNIAYIIGKKGYFEKVDLGESTVSSCASLVCSYVPSSVQI” the entry was “soluble”.
On to “MVQLFSAFDRETIERNLQEEKFDLVIVGGGITGAGIALDATSRGMSVALVEMGDFASGTSSRSTKLVHGGLRYLQQFEIKEVADLGKERAIVYENGPHVTTPEWMMLPFHKGGNMGKTTASFGIRLYDYLAGVKKNERRKILSAKETLAKNPFVKKDGLKGSGYYVEYRTDDARLTIEVMKKAVELGANAINYTKAEHFLYDDKKQVVGVTVTDRLTGKAYDIKGHRVINAAGPWVDKVRKLDYATNNKHLRLTKGIHLVIDKQKFPMEQAVYFDTPDGRMVFAIPRDKKVYVGTTDTVYDEAVINPKALESDHNYVIKAINYMFPDVHISEKDIESSWAGVRPLIYEEGKDPSEISRKDEVWFSESGLITMAGGKLTGYRKMAEKLLDGVSKTLSKETGKKYKPVQTKHLPISGGDIGGSEQLEAFLSKKAKEGNNRFGWTLEEGREIAKRFGSNIDQLFTYAQEHKDQNETTLPNSLYAELRYSIQHEAVTTPIDFLLRRTGYLLFDMPYLLEWKDAVVDEMAKQFHWSDDVKQTYIEELNIQINDAREPADWHDRLEHHHHHH”, for which the “soluble on expression in E. coli” value was “soluble”.
For the sequence “MVQREKARDNFEGGCLAELIGSPRDWKCFLAVPDPLLGVQHWLHLWRPQTKDGNSLHRHGDQAWGKHRRQNSLKSPALSGHSIDYHFYPRLRCGMLIGPDKQAVASGLEVLVTSSTKILGQLFPDAAHFLEEASEFKAE”, the “soluble on expression in E. coli” value is recorded as “soluble”.
As for “MVRPEDFNSLELDNSLTDGETVHEMMAHKAGLTYNDFNILPGFINFGVHDVSLETNITKDLKIKAPLVSSPMDTVTESGMAIVMALYGGIGIIHGNFPKPEDQAAEVLKVKRFKQGYVMQPHCLSRDSTAFDMIQIKKKYGYTGAPVTEDGRVGSKLIGMVTSRDFDFITMDVAGQKGTPISDTNDVTPTTPITRIMVSVDQLHLGHINDAPELSQKKLKEHRLGKLPIVNDNGELCALLCRSDLLKARDYPMASYDSKGQLLCGAAVNTRGESQYTVDRVVEAGVDVLIIDSSNGSSTYQISMLRYIKEKHPHVQVIAGNVVTRAQAKLLIDQGADGLRIGMGSGSICITQDVMAVGRAQGTAVYDVARYANQRGIPIVADGGIRDVGYITKAISLGASAVMMGGLLAATTEAPGEYFWGPGGVRVKKYRGMGSLDAMEAHASSQDRYFTAHVFFSILSYF”, the “soluble on expression in E. coli” value is “not soluble”.
As to “MVRTYSPAFREAAVRMMISHREEYKCSRWAAAVAISEKIGASPNSIYAWFKKSTFETIESDDFDLAYYKERIERLESEIQRLQKTIKFLRTTIIILSNSLHFG”, the “soluble on expression in E. coli” value was “not soluble”.
With “MVRVKICGITNLEDALFSVESGADAVGFVFYPKSKRYISPEDARRISVELPPFVFRVGVFVNEEPEKILDVASYVQLNAVQLHGEEPIELCRKIAERILVIKAVGVSNERDMERALNYREFPILLDTKTPEYGGSGKTFDWSLILPYRDRFRYLVLSGGLNPENVRSAIDVVRPFAVDVSSGVEAFPGKKDHDSIKMFIKNAKGL” the entry was “soluble”.
For the sequence “MVSNSSITFKEFVDYWFEAYASTAVKPSTQKRYRQLLKPALRAIGNKPLNKVKPLDIQNIYIALAGTQSNCTILKLHRLLHEIFKHAQMWEYISDNPVKKVVPPTPEKKVFDLEHHHHHH”, the “soluble on expression in E. coli” value was “not soluble”.
With “MVSQIGLLLPLSGDGQILGTTIQSGFNDAKGNSTIPVQVFDTSMNSVQDIIAQAKQAGIKTLVGPLLKQNLDVILADPAQIQGMDVLALNATPNSRAIPQLCYYGLSPEDEAESAANKMWNDGVRNPLVAMPQNDLGQRVGNAFNVRWQQLAGTDANIRYYNLPADVTYFVQENNSNTTALYAVASPTELAEMKGYLTNIVPNLAIYASSRASASATNTNTDFIAQMNGVQFSDIPFFKDTNSPQYQKLAKSTGGEYQLMRLYAMGADAWLLINQFNELRQVPGYRLSGLTGILSADTNCNVERDMTWYQYQDGAIVPVVDHHHHHH”, the “soluble on expression in E. coli” value is recorded as “soluble”.
On to “MVSRKRRAAQIESSRKGVASIRARCDMEASCSSSQENEASRASTSQCSSPKNLKMENVTILPKTLKLIHDDPKSQVIVSIQFEIEDTKKKISAAILNFNISKKANNAIRSERKRIVATILKTRKHVERFRRLWKKEKKKKEHSEILYKKSQLSKQETIAKFPPMFR”, for which the “soluble on expression in E. coli” value is recorded as “not soluble”.
As to “MVSVSEIRKAQRAEGPATILAIGTANPANCVEQSTYPDFYFKITNSEHKTELKEKFQRMCDKSMIKRRYMYLTEEILKENPNVCEYMAPSLDARQDMVVVEVPRLGKEAAVKAIKEWGQPKSKITHLIVCTTSGVDMPGADYQLTKLLGLRPYVKRYMMYQQGAFAGGTVLRLAKDLAENNKGARVLVVCSEVTAVTFRGPSDTHLDSLVGQALFGDGAAALIVGSDPVPEIEKPIFEMVWTAQTIAPDSEGAIDGHLREAGLTFHLLKDVPGIVSKNITKALVEAFEPLGISDYNSIFWIAHPGGPAILDQVEQKLALKPEKMNATREVLSEYGNMSSACVLFILDEMRKKSTQNGLKTTGEGLEWGVLFGFGPGLTIETVVLRSVAI”, the “soluble on expression in E. coli” value is listed as “soluble”.
The value for “MVTMALDSVTIEVIRNSAIYISEEMGVVLRDTAFSPNIKDRLDHSCAVLAPDGSLVAQAEHIPVHLGSMSVGVVNLVKYIEDLGMDLGVGDVVVTNDPYISGTHLNDLMAIKPVYAGDFHIAYVANKAHHVDVGGLVPGSIGGGAKELREEGIVIEPVKVVEAGSVRWDIVRMLEANVRTPRYFRGDLMAQIASLNVGEARLRELAGRYGGSALVEAWESILGYTERYTREKIGEVAALASGVYRARDYMETSKGELLEIVATLTIDKGRLTVDYTGTSKQVDEPINAVYGVTVAATLFALKSTLDPEMPMNQGFFRIVEIKAPEGTLVNPLKPAPVGGGNVETSQRIADVVFRALAEALPERVPAASCGTMSNVMVGGRGWAFYETNACGSGARPCCDGVDGVHTNMTNTLNTPIEVIEREYPILFNAYELRPDSGGPGMYRGGLGVVRAFTALEDNVTITIFAERGLTRPWGLSGGRPGRSFEAVITRAAGEVERLMSKHTAKLNRGDTIAIYTPGGGGYGDPCKRDRSLIERDLREGRITMESAVKDYCYDS” was “not soluble”; that for “MVTREEFVARFGGVFEHSPFIAERAYDAGGAGLELTAKAVHGALCAQFRVASEAERLGVLRAHPDLAGKLAIAGELTADSRNEQAGAGLDRLSPQEHARFTQLNSAYTEKFGFPFIIAVKGLNRHDILSAFDTRIDNNAAQEFATATGQVEKIAWLRLASMLPEGLEHHHHHH” was “soluble”.
For “MVTVREAKLEDIKDIAKVHVDSWRTTYHEIIPIDYLNSLNYKEFEDKWKSRSLKGVFVAQDEKGSVFGFASFGPIRSEQEGYDGELYAIYLLEERQRQGAGRALLAKGAEFLLQHGFSSMFVWVIEQNPSIIFYQAYSPERVAEDNFEIAGVRLKEVGLGWPDLSALKTLLNR”, the “soluble on expression in E. coli” value was “soluble”.
For “MVVLGRIAGPHGIRGQIKVIPFTEYVDGLMEYPVWCLSRDEKNWQIVRPATFFIHDNLLIVTLTGYSDRTSASELKGLLVAVPRSQLPPLSKDGEDGYYWTDLIGISVVNMQGEPLGTVAGLFETGANDVLRVRLSGSSKDELIPFVDQVIRQVDLESRQITVDWELGYLEHHHHHH”, the “soluble on expression in E. coli” value is listed as “not soluble”.
